According to patent publication WO2024034543A1:

Tests used:
[1] = target: actin fused with TARGET tag, expressed in XTC cells; experiment: single-molecule time-lapse imaging on fixed XTC cells expressing tag-fused actin; reference P20.1 WT
[2] = target: actin fused with ALFA tag, expressed in XTC cells; experiment: single-molecule time-lapse imaging on fixed XTC cells expressing ALFA tag-fused actin; reference NbALFA WT
[3] = target: actin fused with FLAG tag, expressed in XTC cells; experiment: single-molecule time-lapse imaging on fixed XTC cells expressing tag-fused actin; reference 2H8 WT
[4] = target: actin fused with S tag, expressed in XTC cells; experiment: single-molecule time-lapse imaging on fixed XTC cells expressing tag-fused actin; reference S66B WT
[5] = target: mCherry-VGLUT1 overexpressed in CTC cells; experiment: single-molecule time-lapse imaging on fixed CTC cells overexpressing mCherry-VGLUT1; reference NV-Nb9 WT
[6] = target: actin fused with HA tag, expressed in XTC cells; experiment: single-molecule time-lapse imaging on fixed XTC cells expressing tag-fused actin; reference 12CA5 WT
[7] = target: mCherry-Hommer1 overexpressed in CTC cells; experiment: single-molecule time-lapse imaging on fixed CTC cells overexpressing mCherry-Hommer1; reference HS69 WT

Work on “anti-TARGET tag antibody clone P20.1, mutant code H1L0 (HY59G), Fv-EGFP (from UniProt P01724 22-129)” yielded a fold rise of the dissociation constant against WT [1] of 10 times.

For “anti-ALFA tag nanobody clone NbALFA, mutant code H2 (V27G, T28A, Y37A, E53A, R60A, V99A) (VHH)”, the fold rise of the dissociation constant against WT [2] was 1000 times.

Work on “anti-FLAG antibody clone 2H8, mutant code H1L3 (HS28A, LY96A), Fv-EGFP (from UniProt P01631 1-113)” yielded a fold rise of the dissociation constant against WT [3] of 50 times.

“anti-S tag antibody clone S66B, mutant code H1L0 (HS28A), Fv-EGFP (from UniProt P03976 1-113)” gave a fold rise of the dissociation constant against WT [4] of 2 times.

B1: anti-VGLUT nanobody clone NV-Nb9, mutant code H4 (R27G, T28A, Y32A, F37A, Y102A) (VHH)
VHH: QVQLQESGGGLVQAGDSLRLSCAASGGAWSIAGMGWARQAPGKEREFVAGITWRGGNTHYADFVKGRFTISRDNVKNTVYLQMNSLKPEDTAVYYCAANPNPSGSSVYRRNDAWGQGTQVTVSS
Molecule B1 has a fold rise of the dissociation constant against WT [5] of 50 times.

B2: anti-HA tag antibody clone 12CA5, mutant code H6L2 (HT28A, HY32A, LY49A), Fv-EGFP (protein)
heavy: EVKLVESGGDLVKPGGSLKLSCAASGFAFSSAGMSWVRQTPDKRLEWVATISRGGSYTYYPDSVKGRFTISRDNAKNTLYLQMSSLKSEDTAMYYCARRETYDEKGFAYWGQGTTVTVSS
light: DIELTQSPSSLTVTAGEKVTMSCKSSQSLLNSGNQKNYLTWYQQKPGQPPKLLIAWASTRESGVPDRFTGSGSGRDFTLTISSVQAEDLAVYYCQNDNSHPLTFGAGTKLELKA
B2 showed a fold rise of the dissociation constant against WT [6] of 100 times.

B3: anti-Homer nanobody clone HS69, mutant code H3 (S27G, T28A, F37A, Y59A) (VHH)
VHH: QVKLQESGGRLVQAGGSLRLSCTASGGAFSNSAMGWARQAPGKQRELVASIANEGQFTNAAASVKGRFTISRDNTKNVLFLQMNSLKPEDTAVYYCKLYSGRIGSSDVWGQGTQVTVSS
In the case of B3, the fold rise of the dissociation constant against WT [7] is reported as 100 times.
